Columns and labels:
Test in all cases: fluorescence, 4-mU release
Type in all cases: biochemical, Moraxella sp. TA144
Details in all cases: 0.1 M phosphate pH 7, 30 °C, 5% DMSO
[1] = tested on: COC(=O)c1ccc(C(=O)OCCOC(=O)c2ccc(C(=O)Oc3ccc4c(C)cc(=O)oc4c3)cc2)cc1
From the text: (§1) fluorescence, 4-mU release on MoPE (polyesterase)

[2] = tested on: CCOCCOC(=O)c1ccc(C(=O)Oc2ccc3c(C)cc(=O)oc3c2)cc1
From the text: as §1

[3] = tested on: COC(=O)c1ccc(C(=O)Oc2ccc3c(C)cc(=O)oc3c2)cc1
From the text: as §1

MoPE (polyesterase) (Moraxella sp. TA144)
Km [1]: 17.4 ± 2.1 µM
Km [2]: 15.6 ± 1.5 µM
kcat [2]: 0.00014 ± 1e-06 s⁻¹
Km [3]: 1.9 ± 0.1 µM
kcat [3]: 3e-05 ± 1e-06 s⁻¹
